Source: patent US20230212319A1, “NOVEL ANTIGEN BINDING DOMAINS AND SYNTHETIC ANTIGEN RECEPTORS INCORPORATING THE SAME” (University of Southern California, priority 2020, published 2023)

Assays:
HepG2 cells = format: cell-based
Raji-CD22-KO = assay: JNG NFAT-GFP assay, co-culture with Raji-CD22-KO cells; format: cell-based
Nalm6 cells = assay: JNG assay, co-culture with Nalm6 cells; format: cell-based; conditions: co-culture with Nalm6
Procedure, shortened: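 Jurkat NFAT-GFP reporter cells stably expressing lentivirally transduced SARs, drug-selected where possible, were co-cultured with target cells at E:T ≈1:2 for ~4–18 h. GFP measured by FACS; scored +/- to 5+ (~5–50% GFP+ cells) above parental reporter cells.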

L363 cells = assay: JNG assay, co-culture with L363 cells; format: cell-based; conditions: co-culture with L363
Procedure, shortened: (§1)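 Read-out is NFAT-driven GFP measured by flow cytometry after ~4–18 h co-culture of SAR-expressing JNG cells with target cells (E:T about 1:2). SARs were introduced by lentiviral spinfection and selected with puromycin or blasticidin when possible; scores (+/- to 5+ ≈ 5–50% GFP+) are relative to parental JNG cells.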

RAJI cells = assay: JNG assay, co-culture with RAJI cells; format: cell-based; conditions: JNG cells expressing construct, co-culture with Raji
Procedure, shortened: as §1

U266 cells = assay: JNG NFAT-GFP induction on co-culture with U266; format: cell-based
[1] = JNG NFAT-GFP background GFP induction (tonic signaling)
THP-1 cells = assay: JNG NFAT-GFP induction on co-culture with THP-1
L363-Luc cells = assay: L363 xenograft in NSG mice

B1: 22256 (protein)
chain: MGPRLLFWALLCLLGTGPVEAGVTQSPTHLIKTRGQQATLRCSPISGHTSVYWYQQALGLGLQFLLWYDEGEERNRGNFPPRFSGRQFPNYSSELNVNALELEDSALYLCASSLGGPRGLAGLRGDEQFFGPGTRLTVLEGTGGGGSGGGEFDIQMTQSPSSLSASVGDRVTITCKASDHINNWLAWYQQKPGQAPKLLIYGATTLETGVPSRFSGSGSGTDYTLTISSLQPEDFATYYCQQSWNTPWTFGQGTKLEIKRLEDLKNVFPPEVAVFEPSEAEISHTQKATLVCLATGFYPDHVELSWWVNGKEVHSGVCTDPQPLKEQPALNDSRYCLSSRLRVSATFWQNPRNHFRCQVQFYGLSENDEWTQDRAKPVTQIVSAEAWGRADCGFTSESYQQGVLSATILYEILLGKATLYAVLVSALVLMAMVKRKDSRGRAKRSGSGATNFSLLKQAGDVEENPGPTSATMDWIWRILFLVGAATGAHSGPEVQLVESGGGLVQAGGSLRLSCAASGRTFSMGWFRQAPGKEREFVAAITYSGGSPYYADSVKGRFTISRDNAKNTVYLQMNSLKPEDTAVYYCAANPTYGSDWNAENWGQGTQVTVSSGSGGGGSGGGGSGGGGSFEQVQLQQPGAELVKPGASVKMSCKASGYAFSSYWINWMKQKPGQGLEWIGQIYPGDGDTNYNGKFKGRATLTADTSSSTAYMQLSSLTSEDSAVYFCARSITTVVGCAMDYWGQGTSVTVSSTRIQNPDPAVYQLRDSKSSDKSVCLFTDFDSQTNVSQSKDSDVYITDKCVLDMRSMDFKSNSAVAWSNKSDFACANAFNNSIIPEDTFFPSPESSCDVKLVEKSFETDTNLNFQNLSVIGFRILLLKVAGFNLLMTLRLWSSRAKRSGSGVKQTLNFDLLKLAGDVESNPGPSRGHMTEYKPTVRLATRDDVPRAVRTLAAAFADYPATRHTVDPDRHIERVTELQELFLTRVGLDIGKVWVADDGAAVAVWTTPESVEAGAVFAEIGPRMAELSGSRLAAQQQMEGLLAPHRPKEPAWFLATVGVSPDHQGKGLGSAVVLPGVEAAERAGVPAFLETSAPRNLPFYERLGFTVTADVEVPEGPRTWCMTRKPGA
HepG2 cells
  NFAT-GFP ASSAY: HepG2: RAJI (+/-), HepG2 (-/^+)

B2: 22146 (protein)
chain: MALPVTALLLPLALLLHAARPACEVQLLESGGGLIQPGGSLRLSCAASGFTFSSHAMTWVRQAPGKGLEWVSAISGSGDYTHYADSVKGRFTISRDNSKNTVYLQMNSLRAEDSAVYYCAKDEDGGSLLGHRGQGTLVTVSSGTGGGGSGGGGSGGGGSEFDIQMTQSPSSLSASVGDRVTITCRASQDISNYLNWYQQKPGKAVKLLIYYTSILHSGVPSRFSGSGSGTDYTLTISSLQPEDFATYFCQQGNTLPWTFGGGTKVEIKLEGQPKANPTVTLFPPSSEELQANKATLVCLISDFYPGAVTVAWKADGSPVKAGVETTKPSKQSNNKYAASSYLSLTPEQWKSHRSYSCQVTHEGSTVEKTVAPTECSGRADCGFTSESYQQGVLSATILYEILLGKATLYAVLVSALVLMAMVKRKDSRGRAKRSGSGATNFSLLKQAGDVEENPGPTSATMDWIWRILFLVGAATGAHSGPQVQLQESGGGLAQAGGSLRLSCAASGRTFSMGWFRQAPGKEREFVAAITYSGGSPYYASSVRGRFTISRDNAKNTVYLQMNSLKPEDTAVYYCAANPTYGSDWNAENWGQGTQVTVSSGSGGGGSGGGGSGGGGSFEVQLVESGGGLVKPGGSLKLSCAASGFAFSIYDMSWVRQAPGKGLEWVAYISSGGGTTYYPDTVKGRFTISRDNAKNTLYLQMSSLRAEDTAMYYCARHSGYGSSYGVLFAYWGQGTLVTVSSTRASTKGPSVFPLAPSSKSTSGGTAALGCLVKDYFPEPVTVSWNSGALTSGVHTFPAVLQSSGLYSLSSVVTVPSSSLGTQTYICNVNHKPSNTKVDKRVEPKSCIPEDTFFPSPESSCDVKLVEKSFETDTNLNFQNLSVIGFRILLLKVAGFNLLMTLRLWSSRAKRSGSGVKQTLNFDLLKLAGDVESNPGPSRGHMTEYKPTVRLATRDDVPRAVRTLAAAFADYPATRHTVDPDRHIERVTELQELFLTRVGLDIGKVWVADDGAAVAVWTTPESVEAGAVFAEIGPRMAELSGSRLAAQQQMEGLLAPHRPKEPAWFLATVGVSPDHQGKGLGSAVVLPGVEAAERAGVPAFLETSAPRNLPFYERLGFTVTADVEVPEGPRTWCMTRKPGA
Raji-CD22-KO
  NFAT-GFP ASSAY: Raji-CD22-KO: 3+ (refer to approximately 5%, 10%, 20%, 30%, 40% and 50% GFP positive cells)
Nalm6 cells
  NFAT-GFP ASSAY: Nalm6: +/- (refer to approximately 5%, 10%, 20%, 30%, 40% and 50% GFP positive cells)
L363 cells
  NFAT-GFP ASSAY: L363: + (refer to approximately 5%, 10%, 20%, 30%, 40% and 50% GFP positive cells)
RAJI cells
  NFAT-GFP ASSAY: Raji: 2+ (refer to approximately 5%, 10%, 20%, 30%, 40% and 50% GFP positive cells)
U266 cells
  NFAT-GFP ASSAY: U266: 2+ (refer to approximately 5%, 10%, 20%, 30%, 40% and 50% GFP positive cells)

B3: 22144 (protein)
chain: MALPVTALLLPLALLLHAARPMLPAPKNLVVSRITEDSARLSWTAPDAAFDSFPIRYIETLIWGEAIWLDVPGSERSYDLTGLKPGTEYAVVITGVKGGRFSSPLVASFTTGTGGGGSGGGGSGGGGSEFDIQMTQSPSSLSASVGDRVTITCRASQDISNYLNWYQQKPGKAVKLLIYYTSILHSGVPSRFSGSGSGTDYTLTISSLQPEDFATYFCQQGNTLPWTFGGGTKVEIKLEDLKNVFPPEVAVFEPSEAEISHTQKATLVCLATGFYPDHVELSWWVNGKEVHSGVCTDPQPLKEQPALNDSRYCLSSRLRVSATFWQNPRNHFRCQVQFYGLSENDEWTQDRAKPVTQIVSAEAWGRADCGFTSESYQQGVLSATILYEILLGKATLYAVLVSALVLMAMVKRKDSRGRAKRSGSGATNFSLLKQAGDVEENPGPTSMDWIWRILFLVGAATGAHSFEVQLVESGGGLVKPGGSLKLSCAASGFAFSIYDMSWVRQAPGKGLEWVAYISSGGGTTYYPDTVKGRFTISRDNAKNTLYLQMSSLRAEDTAMYYCARHSGYGSSYGVLFAYWGQGTLVTVSSTRIQNPDPAVYQLRDSKSSDKSVCLFTDFDSQTNVSQSKDSDVYITDKCVLDMRSMDFKSNSAVAWSNKSDFACANAFNNSIIPEDTFFPSPESSCDVKLVEKSFETDTNLNFQNLSVIGFRILLLKVAGFNLLMTLRLWSSRAKRSGSGVKQTLNFDLLKLAGDVESNPGPSRGHMTEYKPTVRLATRDDVPRAVRTLAAAFADYPATRHTVDPDRHIERVTELQELFLTRVGLDIGKVWVADDGAAVAVWTTPESVEAGAVFAEIGPRMAELSGSRLAAQQQMEGLLAPHRPKEPAWFLATVGVSPDHQGKGLGSAVVLPGVEAAERAGVPAFLETSAPRNLPFYERLGFTVTADVEVPEGPRTWCMTRKPGA
Raji-CD22-KO
  NFAT-GFP ASSAY: Raji-CD22-KO: +/- (refer to approximately 5%, 10%, 20%, 30%, 40% and 50% GFP positive cells)
Nalm6 cells
  NFAT-GFP ASSAY: Nalm6: +/- (refer to approximately 5%, 10%, 20%, 30%, 40% and 50% GFP positive cells)
L363 cells
  NFAT-GFP ASSAY: L363: + (refer to approximately 5%, 10%, 20%, 30%, 40% and 50% GFP positive cells)
RAJI cells
  NFAT-GFP ASSAY: Raji: + (refer to approximately 5%, 10%, 20%, 30%, 40% and 50% GFP positive cells)
U266 cells
  NFAT-GFP ASSAY: U266: 3+ (refer to approximately 5%, 10%, 20%, 30%, 40% and 50% GFP positive cells)

B4: 21852 (protein)
chain: MALPVTALLLPLALLLHAARPSYVLTQPPSVSVAPGQTARITCGGNNLGSKSVHWYQQPPGQAPVVVVYDDSDRPSGIPERFSGSNSGNTATLTISRVEAGDEAVYYCQVWDSSSDHVVFGGGTKLTVLLEDLKNVFPPEVAVFEPSEAEISHTQKATLVCLATGFYPDHVELSWWVNGKEVHSGVCTDPQPLKEQPALNDSRYCLSSRLRVSATFWQNPRNHFRCQVQFYGLSENDEWTQDRAKPVTQIVSAEAWGRADCGFTSESYQQGVLSATILYEILLGKATLYAVLVSALVLMAMVKRKDSRGRAKRSGSGATNFSLLKQAGDVEENPGPTSMDWIWRILFLVGAATGAHSFEQLQLQESGPGLVKPSETLSLTCTVSGGSISSGSYFWGWIRQPPGKGLEWIGSIYYSGITYYNPTLKSRVTISVDTSKNQFSLKLSSVTAADTAVYYCARHDGAVAGLFDYWGQGTLVTVSSATRIQNPDPAVYQLRDSKSSDKSVCLFTDFDSQTNVSQSKDSDVYITDKCVLDMRSMDFKSNSAVAWSNKSDFACANAFNNSIIPEDTFFPSPESSCDVKLVEKSFETDTNLNFQNLSVIGFRILLLKVAGFNLLMTLRLWSS
[1]
  background GFP induction (tonic signaling): no background GFP induction
THP-1 cells
  GFP induction upon co-culture with THP-1: no GFP induction
L363-Luc cells; 0.5 × 10^6 L363-Luc i.v., 3 days later 2 × 10^6 SAR-T i.v., compared to control T cells
  disease control, L363 xenograft: superior disease control
L363-Luc cells; mouse, in vivo, iv
  survival, L363 xenograft: prolongation of survival
